# Assays:
# Diaphorase [1] = assay: peptide array, 1 uM labeled diaphorase, no FAD
# Diaphorase [2] = assay: peptide array, 1 uM labeled diaphorase, with FAD
# Diaphorase [3] = assay: peptide array, 10 uM labeled diaphorase, with FAD
# Diaphorase [4] = assay: peptide array, 1 uM diaphorase, binding without FAD / with FAD
# Diaphorase [5] = assay: peptide array, 10 uM diaphorase, binding without FAD / with FAD
# Diaphorase [6] = assay: peptide array, 10 uM labeled diaphorase, no FAD; detector saturation
# Diaphorase [7] = assay: peptide array, 10 uM labeled diaphorase, no FAD
# Diaphorase [8] = assay: peptide array, 1 uM diaphorase, measured binding without FAD / with FAD
Binder,fluorescence (Diaphorase [1]),fluorescence (Diaphorase [2]),fluorescence (Diaphorase [3]),noFAD/FAD (Diaphorase [4]),noFAD/FAD (Diaphorase [5]),Meas. ratio (noFAD/FAD) (Diaphorase [8]),other results
RQAYLFGGSG,14500,4480,64000,3.23,1.02,,fluorescence (Diaphorase [6]): > 65500
RAQYAQYLFGGSG,8720,3160,55400,2.76,1.18,,fluorescence (Diaphorase [6]): > 65500
RYAYFQHLGGSG,13600,4970,64100,2.73,1.02,,fluorescence (Diaphorase [6]): > 65500
PRSFGYNNVGGSG,6840,2530,40500,2.71,1.62,,fluorescence (Diaphorase [6]): > 65500
RWRYYWKSEGSG,11000,4090,51400,2.7,1.27,,fluorescence (Diaphorase [6]): > 65500
RNWYGGS [RNWYGGSG],7830,2940,48600,2.66,1.35,,fluorescence (Diaphorase [6]): > 65500
YRLNLKHPVGGSG,12700,4150,56700,3.05,1.16,,fluorescence (Diaphorase [6]): > 65500
YRFPNAQSPGGSG,6240,2370,37700,2.63,1.74,,fluorescence (Diaphorase [6]): > 65500
FQFGKVVSDGSG,1570,2470,20200,0.637,0.631,,fluorescence (Diaphorase [7]): 12700
VFGVLSQVARDGSG,4250,6640,51500,0.64,0.509,,fluorescence (Diaphorase [7]): 26200
WLDLGVFPYQHLGSG,2200,3430,33600,0.641,0.765,,fluorescence (Diaphorase [7]): 25700
AQVAVDGFYVDGSG,2010,3090,22700,0.652,0.555,,fluorescence (Diaphorase [7]): 12600
WRLNPLQFGGSG,,,,,,2.54,
PRFNWKPYGGSG,,,,,,2.44,
YWRFYANWAQLFG,,,,,,2.56,
YQRHQNVFAKSGG,,,,,,2.56,
WRPFWKNLGGSG,,,,,,2.18,
ARWQQYKFGGSG,,,,,,2.18,
YRYGWQKYGGSG,,,,,,2.43,
YRGAGKNKGGSG,,,,,,1.49,
RQRYPKVSGGSG,,,,,,1.71,
RVLPYHGWKWFSG,,,,,,2.45,
YRWGAKHYGGSG,,,,,,2.06,
PQKSNHFHEAQKR,,,,,,2.41,
YRRFPYFPGGSG,,,,,,1.6,
YRRPWKFRDGSG,,,,,,1.74,
WRVQAWRPNKVEG,,,,,,2.43,

Binder,fluorescence (Diaphorase [1]),fluorescence (Diaphorase [2]),fluorescence (Diaphorase [3]),noFAD/FAD (Diaphorase [4]),noFAD/FAD (Diaphorase [5]),Meas. ratio (noFAD/FAD) (Diaphorase [8]),other results
NRKFYWNAGGSG,,,,,,2.1,
WRSVYVPNGGSG,,,,,,2.35,
PVDFGYQLKVSGS,,,,,,0.66,
KHSFQKELGGSG,2090,728,300,2.87,0.794,,fluorescence (Diaphorase [7]): 2390
WHLLGWVGYGGSG,,,,,,0.7,
LFDNVLEFVEDGS,,,,,,0.69,
PVPWRHVNYAHSG,,,,,,0.69,
SGVLQFFGGSG,,,,,,0.7,
KEDKVFGFRFDGS,,,,,,0.7,
GYHLFEKLYFDGS,,,,,,0.7,
NHLLEGAFVSEGS,,,,,,0.77,
ALDKLSGLWKHVG,,,,,,0.69,
FLQFLGGSG,,,,,,0.87,
FYNFGYQDLEDGS,,,,,,0.75,
EGFGYLFAHVGGS,,,,,,0.78,
DYFEGQLNHLGGS,,,,,,0.75,
FNKVLEYKWLFEG,,,,,,0.73,
HVYGLNLFDGSG,,,,,,0.72,
DANLFGYFKDGGS,,,,,,0.7,
AFNVWQYFEGGSG,,,,,,0.73,
VLAYKLQVDGSG,,,,,,0.68,
VSWVFGLGHEGGS,,,,,,0.71,
AWVELEYQYVFEG,,,,,,0.74,
RYNLYKPSDGSG,3570,1250,18200,2.87,2.77,,fluorescence (Diaphorase [7]): 50300
YRFAQYKGQKDGSG,4470,1600,19900,2.78,2.86,,fluorescence (Diaphorase [7]): 56900
RWYKNGGSG,10200,3660,46300,2.78,1.4,,fluorescence (Diaphorase [7]): 64800
RFGQNLPLGGSG,5800,2100,34700,2.76,1.83,,fluorescence (Diaphorase [7]): 63500

# — patent publication US20190064177A1, “INCORPORATING COMPETITIVE BINDING INFORMATION INTO MOLECULAR ARRAY ANALYSIS TO GENERATE FUNCTION NETWORKS OF INTERACTIONS” (ARIZONA BOARD OF REGENTS ON BEHALF OF ARIZONA STATE …, priority 2017, published 2019)
